{
  "source": "patent US11066455B2",
  "about": "“Tmem100 peptides and variants thereof and their use in treating or preventing diseases or conditions” (The Johns Hopkins University, priority 2014, dated 2021)",
  "key": {"TRPA1": {"system": "T1, TRPA1", "T1 construct": "percentage of cells responsive to CA; other: shortened CPP 2 μM; CA 10 μM; HEK293 TRPA1+TRPV1; vs scrambled; percentage of cells responsive to MO; other: peptide 200 nM pre-treatment; 500 nM MO; HEK293T TRPA1+TRPV1; percentage of cells that respond to 100 nM MO and 10 μM CA; other: HEK293T TRPA1+TRPV1, Tmem100-3Q-transfected vs lacki; reduction in the percentage of cells responding to MO", "experiment": "Calcium imaging of HEK293T cells expressing TRPA1 and TRPV1 (MO or CA)", "format": "cell-based", "experimental": "Calcium imaging assays were performed as previously described (Liu et al., 2009). Cells were loaded with 2 μM fura 2-acetomethoxy ester (Molecular Probes) for 30 min in the dark at room temperature or for 45 minutes at 37° C. for DRG and cell lines, respectively. After washing, cells were imaged at 340 and 380 nm excitation to detect intracellular free calcium under a fluorescent microscope (Nikon Eclipse TE2000-S) and Lambda 10B shutter (Sutter Instrument). The cells were bathed in calcium imaging buffer (pH 7.45, 130 mM NaCl, 3 mM KCl, 2.5 mM CaCl2, 10 mM HEPES, 10 mM glucose, 1.2 mM NaHCO3, with sucrose to increase osmolarity to 290 mOsm). The reagents and buffers were applied through a gravity perfusion system at a rate of […], including mustard oil (Sigma 377430), cinnamaldehyde (Sigma C80687), menthol (Sigma M2780), and capsaicin (Sigma M2028). Cells with high baseline 340/380 values (>1.5) were excluded for analysis. For DRG neurons, IB4 staining was performed in the chamber with the dilution of 1:200 (Molecular Probes 121412) for 160 seconds before washing off at the end of each test. Images were processed and analyzed with NIS-Elements BR 2.30 software (Nikon). A responsive cell was defined as one that with greater than a 20% increase in the 340/380 ratio above the baseline. Intracellular calibration for calcium was performed as previously described (Akopian et al., 2007). The data was analyzed with the experimenter blinded to the genotypes or constructs transfected.\nDRG from 3 to 4-week old mice were collected in cold DH10 medium (90% DMEM/F-12, 10% FBS, 100 U/ml penicillin, and 100 μg/ml Streptomycin, Gibco) and treated with enzyme solution in HBSS containing collagenase (1.65 mg/mL, Worthington CLS I) and dispase (3.55 mg/mL, GIBCO 17105-041) at 37° C. for 30 minutes. After trituration and centrifugation, cells were resuspended in DH10, plated on glass coverslips coated with poly-D-lysine (0.5 mg/ml, Stoughton, Mass.) and laminin (10 μg/ml, Invitrogen), and cultured overnight in an incubator at 37° C. The neurons were tested within 24 hours. HEK293T, COS-7, and CHO cells were cultured in a medium consisting of 90% DMEM, 10% FBS, 100 U/mL penicillin, and 100 μg/ml Streptomycin. GlutaMAX (Gibco 35050-061) was also added for CHO cells. For calcium imaging, the cells were plated on glass coverslips coated with poly-D-lysine (0.5 mg/ml, Stoughton, Mass.). In the HEK cell studies the denominator is the cells expressing both TRPA1, TRPV1, and the designated constructs (i.e. Tmem100 or Tmem100-3Q mutant). mCherry:TRPV1:Tmem100 was transfected in 1:8:8 ratio into TRPA1 stable cell line (obtained from N. Tigue from GlaxoSmithKline) and used mCherry as the marker for the cells expressing the constructs 18 hours after transfection with Lipofectamine 2000. The transfection efficiency for Tmem100+TRPV1+TRPA1 triple-positive cells is 27±3%. This efficiency was determined by mCherry(+) divided by total number of cells in the bright fields.\nThe sequence from the last 28 amino acids of the C-terminus of the Tmem100-3Q mutant protein was synthesized and myristoylated at its N-terminus (myr-[…]-COOH) (SEQ ID NO: 8) by Twentyfirst Century Biochemicals. […] For the calcium imaging assay, the peptides were added to the calcium imaging buffer with a final concentration of 200 nM and incubated for at least […] at room temperature. For the mice behavioral assays, the peptides (5 μL, 2 mM) were injected subcutaneously in the hindpaw at least 30 minutes before testing. For the rat behavior assays, human T100-3Q (h-T100), a palmitoylated cell permeable peptide mutated based on the C terminus of human sequence in Tmem100, was applied. The sequence is Palmitoyl-[…]-COOH (SEQ ID NO: 7)."}, "TRPA1-V1 complex": {"system": "TRPA1-V1 complex", "experiment": "FRET with TIRF microscopy of TRPV1-CFP and TRPA1-YFP in COS-7 cells", "format": "cell-based", "conditions": "compared to cells expressing only TRPA1-V1", "source_text": "Expression vectors of pEYFP-TRPA1 (YFP on C-terminal part), pECFP-TRPV1 (CFP on C-terminal part), and pEYFP-N1 were transfected into COS-7 cells with FuGENE HD (Promega E2311), as previously described (Staruschenko et al., 2010). COS-7 cells were chosen since they have flat morphology and thus suitable for TIRF-FRET analysis. Moreover, previously it has been shown that CHO and COS cells express TRPA1 and TRPV1 to the same level (Staruschenko et al., 2010). Data from fixed cells were collected in separate facilities at University of Texas Health Science Center, San Antonio, and the Johns Hopkins University, respectively. […] Briefly, two days after transfection, the cells were fixed for 15 min with 4% paraformaldehyde in PBS and then imaged at the room temperature using total internal reflection fluorescence (TIRF) (also called evanescent-field) microscopy on an inverted Nikon Eclipse TE200U microscope equipped with a plain Apo TIRF 60× oil-immersion, high-resolution (1.45 NA) objective. […] Fluorescence images were collected and processed with a 16-bit, cooled charge-coupled device camera (Cascade 512F; Roper Scientific Inc.) interfaced to a PC running Metamorph software.\nEach cell was photobleached by argon-ion laser (514 nm) at full power for 2 min. […] All images were analyzed in ImageJ. […]"}},
  "note": "* marks the point of attachment. Myristoyl = CCCCCCCCCCCCCC(=O)*",
  "data": [
    {"molecule": "myr-QRVLEQVLQNWSRRANVKQAQKFQVKCT-COOH (Myristoyl-QRVLEQVLQNWSRRANVKQAQKFQVKCT-OH; SMILES CCCCCCCCCCCCCC(=O)N[C@@H](CCC(N)=O)C(=O)N[C@@H](CCCNC(=N)N)C(=O)N[C@H](C(=O)N[C@@H](CC(C)C)C(=O)N[C@@H](CCC(=O)O)C(=O)N[C@@H](CCC(N)=O)C(=O)N[C@H](C(=O)N[C@@H](CC(C)C)C(=O)N[C@@H](CCC(N)=O)C(=O)N[C@@H](CC(N)=O)C(=O)N[C@@H](Cc1c[nH]c2ccccc12)C(=O)N[C@@H](CO)C(=O)N[C@@H](CCCNC(=N)N)C(=O)N[C@@H](CCCNC(=N)N)C(=O)N[C@@H](C)C(=O)N[C@@H](CC(N)=O)C(=O)N[C@H](C(=O)N[C@@H](CCCCN)C(=O)N[C@@H](CCC(N)=O)C(=O)N[C@@H](C)C(=O)N[C@@H](CCC(N)=O)C(=O)N[C@@H](CCCCN)C(=O)N[C@@H](Cc1ccccc1)C(=O)N[C@@H](CCC(N)=O)C(=O)N[C@H](C(=O)N[C@@H](CCCCN)C(=O)N[C@@H](CS)C(=O)N[C@H](C(=O)O)[C@@H](C)O)C(C)C)C(C)C)C(C)C)C(C)C) [scrambled]", "values": [
      {"measurement": "percentage of cells responsive to MO", "setting": "TRPA1; peptide 200 nM pre-treatment, 500 nM MO, HEK293T TRPA1+TRPV1", "result": "18±2.8", "unit": "%"}
    ]},
    {"molecule": "Tmem100-3Q mutant (full-length, mouse) (protein) MTEESTKENLGAPKSPTPVTMEKNPKREVVVTTGPLVSEVQLMAATGGAELSCYRCIIPFAVVVFITGIVVTAVAYSFNSHGSIISIFGLVLLSSGLFLLASSALCWKVRQRNKKVQQQESQTALVVNQRCLFA", "values": [
      {"measurement": "percentage of cells that respond to 100 nM MO and 10 μM CA", "setting": "TRPA1; HEK293T TRPA1+TRPV1, Tmem100-3Q-transfected vs lacking Tmem100-3Q", "result": "significantly lower"},
      {"measurement": "enhancement of the TRPA1-TRPV1 interaction (FRET efficiency)", "setting": "TRPA1-V1 complex", "result": 43, "unit": "%"}
    ]},
    {"molecule": "Tmem100: 134-amino acid two-transmembrane protein, regulator of TRPA1 (SEQ ID NO: 1/2), expressed in cells (protein, listed as Homo sapiens, listed as Mus musculus) chain 1: MTEEPIKEILGAPKAHMAATMEKSPKSEVVITTVPLVSEIQLMAATGGTELSCYRCIIPFAVVVFIAGIVVTAVAYSFNSHGSIISIFGLVVLSSGLFLLASSALCWKVRQRSKKAKRRESQTALVANQRSLFA chain 2: MTEESTKENLGAPKSPTPVTMEKNPKREVVVTTGPLVSEVQLMAATGGAELSCYRCIIPFAVVVFITGIVVTAVAYSFNSHGSIISIFGLVLLSSGLFLLASSALCWKVRQRNKKVKRRESQTALVVNQRCLFA", "values": [
      {"measurement": "decrease of TRPA1-V1 FRET efficiency", "setting": "TRPA1-V1 complex", "result": 34, "unit": "%"}
    ]}
  ]
}
